What all share (assay): holdup assay
What all share (set-up): key: below the threshold = too weak to quantify, mostly under pKd 3.1 to 4
What all share (conditions): plain residues with an end cap or a label only (N-terminal biotin on a linker: ado-ado)

Experiment [1] addresses T1, NHERF3_1, Q5T2W1.
T1 sequence (Q5T2W1 4-100, limits assumed, looked up): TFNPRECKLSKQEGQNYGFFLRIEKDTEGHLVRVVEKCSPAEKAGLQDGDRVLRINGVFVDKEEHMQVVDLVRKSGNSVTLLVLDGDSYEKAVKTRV

Experiment [2] has as its target DLG4_2, P78352.
Experiment [3] deals with T2, MPP7, Q5T2T1.
T2 sequence (Q5T2T1 134-230, limits assumed, looked up): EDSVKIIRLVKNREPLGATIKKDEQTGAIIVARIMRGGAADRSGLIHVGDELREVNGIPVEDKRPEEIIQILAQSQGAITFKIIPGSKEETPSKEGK

Experiment [4] deals with LNX1_1, Q8TBB1.
For experiment [5], the target named is T3, MPP2, Q14168.
T3 sequence (Q14168 180-250, limits assumed, looked up): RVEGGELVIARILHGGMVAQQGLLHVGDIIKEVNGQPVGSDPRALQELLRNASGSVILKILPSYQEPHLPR

Experiment [6] concerns the target T4, SNTG1, Q9NSN8.
T4 sequence (Q9NSN8 52-150, limits assumed, looked up): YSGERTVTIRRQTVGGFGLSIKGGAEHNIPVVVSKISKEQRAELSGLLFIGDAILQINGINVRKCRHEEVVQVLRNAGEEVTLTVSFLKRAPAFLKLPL

Experiment [7] deals with LNX1_3, Q8TBB1.
In experiment [8] the target is PTPN3, P26045.
In experiment [9] the target is SCRIB_3, Q14160.
Experiment [10] concerns the target T5, PDZRN3_1, Q9UPQ7.
T5 sequence (Q9UPQ7 244-349, limits assumed, looked up): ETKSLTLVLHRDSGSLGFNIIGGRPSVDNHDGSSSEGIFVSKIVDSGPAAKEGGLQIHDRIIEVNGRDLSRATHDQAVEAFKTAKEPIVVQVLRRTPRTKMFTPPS

The target in experiment [11] is T6, PCLO, Q9Y6V0.
T6 sequence (Q9Y6V0 4491-4600, limits assumed, looked up): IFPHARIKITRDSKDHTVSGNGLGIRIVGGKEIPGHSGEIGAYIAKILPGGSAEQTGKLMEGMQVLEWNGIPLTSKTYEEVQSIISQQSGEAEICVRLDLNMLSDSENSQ

The target of experiment [12] is MAGI2_5, Q86UL8.
For experiment [13], the target named is T7, APBA1_2, Q02410.
T7 sequence (Q02410 742-832, limits assumed, looked up): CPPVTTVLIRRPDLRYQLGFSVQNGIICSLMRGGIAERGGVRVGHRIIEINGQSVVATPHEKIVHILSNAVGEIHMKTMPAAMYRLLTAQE

Experiment [14] has as its target T8, ARHGAP21, Q5T5U3.
T8 sequence (Q5T5U3 45-169, limits assumed, looked up): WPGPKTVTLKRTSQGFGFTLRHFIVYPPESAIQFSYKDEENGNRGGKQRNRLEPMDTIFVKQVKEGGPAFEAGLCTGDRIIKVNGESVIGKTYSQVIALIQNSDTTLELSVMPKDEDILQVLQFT

Experiment [15] has as its target GRIP2_6, Q9C0E4.
The target in experiment [16] is GRIP2_4, Q9C0E4.
Experiment [17] addresses GRIP2_3, Q9C0E4.
Experiment [18] addresses IL16_1, Q14005.
Experiment [19] concerns the target MAGI2_4, Q86UL8.
Experiment [20] deals with TJP1_3, Q07157.
For experiment [21], the target named is T9, LNX2_3, Q8N448.
T9 sequence (Q8N448 463-564, limits assumed, looked up): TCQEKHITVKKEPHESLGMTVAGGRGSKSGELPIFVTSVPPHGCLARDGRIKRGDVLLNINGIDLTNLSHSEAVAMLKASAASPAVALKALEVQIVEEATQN

In experiment [22] the target is DLG1_1, Q12959.
The target in experiment [23] is GRIP2_5, Q9C0E4.
Experiment [24] deals with Inadl_10, Q8NI35.
For experiment [25], the target named is T10, APBA2_2, Q99767.
T10 sequence (Q99767 654-744, limits assumed, looked up): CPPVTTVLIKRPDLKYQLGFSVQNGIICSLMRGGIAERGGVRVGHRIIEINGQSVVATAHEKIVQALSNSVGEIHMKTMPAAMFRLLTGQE

For experiment [26], the target named is IL16_3, Q14005.
For experiment [27], the target named is GRID2IP_2, A4D2P6.
For experiment [28], the target named is FRMPD4, Q14CM0.
Sequence of FRMPD4, Q14CM0 (Q14CM0 67-160): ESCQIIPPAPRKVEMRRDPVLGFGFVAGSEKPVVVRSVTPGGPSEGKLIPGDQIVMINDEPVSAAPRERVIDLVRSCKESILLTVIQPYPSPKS

Sequence of DLG4_2, P78352 (P78352 155-259): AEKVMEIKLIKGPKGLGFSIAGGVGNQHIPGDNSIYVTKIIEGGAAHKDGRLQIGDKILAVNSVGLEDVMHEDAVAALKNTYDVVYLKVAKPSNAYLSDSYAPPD
Sequence of GRID2IP_2, A4D2P6 (A4D2P6 272-370): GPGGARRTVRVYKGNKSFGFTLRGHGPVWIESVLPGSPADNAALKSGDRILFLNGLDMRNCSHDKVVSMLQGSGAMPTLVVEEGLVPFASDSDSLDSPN
Sequence of GRIP2_4, Q9C0E4 (Q9C0E4 446-548): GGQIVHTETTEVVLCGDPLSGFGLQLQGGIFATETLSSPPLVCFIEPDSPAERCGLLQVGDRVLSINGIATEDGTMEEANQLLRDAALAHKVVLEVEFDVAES
Sequence of LNX1_1, Q8TBB1 (Q8TBB1 261-371): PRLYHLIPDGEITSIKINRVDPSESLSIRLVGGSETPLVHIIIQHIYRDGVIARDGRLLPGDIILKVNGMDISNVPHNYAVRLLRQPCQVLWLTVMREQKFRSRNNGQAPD
Sequence of MAGI2_4, Q86UL8 (Q86UL8 772-865): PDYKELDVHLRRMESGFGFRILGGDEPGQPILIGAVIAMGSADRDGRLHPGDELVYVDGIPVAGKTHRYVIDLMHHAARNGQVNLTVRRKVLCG
Sequence of SCRIB_3, Q14160 (Q14160 999-1103): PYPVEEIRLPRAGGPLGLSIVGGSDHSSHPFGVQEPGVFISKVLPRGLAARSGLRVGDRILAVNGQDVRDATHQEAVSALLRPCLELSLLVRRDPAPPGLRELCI
Sequence of IL16_3, Q14005 (Q14005 1107-1207): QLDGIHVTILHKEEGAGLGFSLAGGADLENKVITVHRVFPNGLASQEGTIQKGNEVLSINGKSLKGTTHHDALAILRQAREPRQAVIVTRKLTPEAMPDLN
Sequence of LNX1_3, Q8TBB1 (Q8TBB1 500-596): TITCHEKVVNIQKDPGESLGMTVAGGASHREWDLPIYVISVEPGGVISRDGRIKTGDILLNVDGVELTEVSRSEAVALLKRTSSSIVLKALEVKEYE
Sequence of GRIP2_5, Q9C0E4 (Q9C0E4 544-642): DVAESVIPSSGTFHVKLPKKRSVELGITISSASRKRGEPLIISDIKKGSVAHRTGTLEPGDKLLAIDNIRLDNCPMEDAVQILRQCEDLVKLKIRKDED
Sequence of PTPN3, P26045 (P26045 505-587): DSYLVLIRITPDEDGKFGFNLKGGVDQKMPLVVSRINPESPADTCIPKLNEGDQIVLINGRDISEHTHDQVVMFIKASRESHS
Sequence of GRIP2_6, Q9C0E4 (Q9C0E4 648-740): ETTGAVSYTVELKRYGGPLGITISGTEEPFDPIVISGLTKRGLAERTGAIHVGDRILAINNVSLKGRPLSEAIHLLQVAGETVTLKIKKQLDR
Sequence of Inadl_10, Q8NI35 (Q8NI35 1673-1763): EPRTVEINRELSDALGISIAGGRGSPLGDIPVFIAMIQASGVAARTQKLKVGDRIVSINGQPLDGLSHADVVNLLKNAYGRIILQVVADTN
Sequence of MAGI2_5, Q86UL8 (Q86UL8 915-1017): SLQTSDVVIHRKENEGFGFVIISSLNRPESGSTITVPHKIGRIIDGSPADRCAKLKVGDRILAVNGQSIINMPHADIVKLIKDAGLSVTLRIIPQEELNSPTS
Sequence of GRIP2_3, Q9C0E4 (Q9C0E4 238-339): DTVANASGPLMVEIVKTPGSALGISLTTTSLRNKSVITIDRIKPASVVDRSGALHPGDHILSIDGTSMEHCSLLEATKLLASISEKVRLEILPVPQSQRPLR
Sequence of TJP1_3, Q07157 (Q07157 416-512): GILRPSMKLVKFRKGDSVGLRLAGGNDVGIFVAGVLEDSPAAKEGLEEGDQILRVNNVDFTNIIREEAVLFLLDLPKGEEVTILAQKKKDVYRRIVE
Sequence of IL16_1, Q14005 (Q14005 210-306): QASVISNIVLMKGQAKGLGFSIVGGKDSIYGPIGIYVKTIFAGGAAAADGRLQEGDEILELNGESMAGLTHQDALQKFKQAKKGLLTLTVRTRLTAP

B1: MYPN, Q86TC9 (peptide)
chain: SRSVVESDEL
For B1, the negative logarithm of the Kd (pKd) in experiment [1] was 5.44; in experiment [2], “below the threshold”; in experiment [3], “below the threshold”; in [4] it was “below the threshold”; in experiment [5], “below the threshold”; in experiment [6] it was “below the threshold”. Further, the negative-log Kd (pKd) result in experiment [7] was “below the threshold”; in experiment [8], 3.99; in experiment [9], 3.51; in [10], “below the threshold”; in [11], “below the threshold”; in [12], 3.95. In addition, the pKd result in experiment [13] was “below the threshold”; in experiment [14] it was 3.51; in experiment [15] it was 3.95; in experiment [16], “below the threshold”; in experiment [17] it was “below the threshold”; in [18], “below the threshold”. In addition, the negative-log Kd (pKd) entry in experiment [19], in [20], in experiment [21], in [22], in experiment [23] and in experiment [24] was “below the threshold” each time. The negative logarithm of the Kd (pKd) entry in [25] is “below the threshold”; in [26], “below the threshold”; in experiment [27] it was “below the threshold”; in experiment [28] it was 3.72.

B2: MUC3A, MUC3B, Q02505;Q9H195 (peptide)
chain: KRPEMTSSSV
As for B2, the negative-log Kd (pKd) is 4.15 in experiment [2]; “below the threshold” in [3]; 1.88 in experiment [4]; “below the threshold” in experiment [5]; 4.08 in experiment [6]; “below the threshold” in experiment [7]. Moreover, the pKd was 1.79 in experiment [9]; “below the threshold” in experiment [11]; 1.83 in experiment [13]; “below the threshold” in experiment [15]; “below the threshold” in experiment [16]; “below the threshold” in [17]. The negative logarithm of the Kd (pKd) in [19] was 1.79; in [20], “below the threshold”; in [21], “below the threshold”; in experiment [22], 1.76; in [23], “below the threshold”; in experiment [24], “below the threshold”. Further, the pKd entry in experiment [25] is “below the threshold”; in [26] it was “below the threshold”; in [27], 3.73; in [28], “below the threshold”.

B3: CNTNAP2, Q9UHC6 (peptide)
chain: IDESKKEWLI
Take B3: the negative logarithm of the Kd (pKd) entry in [1] is “below the threshold”; in [2], “below the threshold”; in experiment [3], 5.46; in experiment [4], “below the threshold”; in experiment [5], 4.78; in experiment [6], “below the threshold”. Further, the pKd result in experiment [7] is “below the threshold”; in [8] it was 4.07; in experiment [9], 3.71; in experiment [10], “below the threshold”; in [11], “below the threshold”; in experiment [12], “below the threshold”. In addition, the pKd result in experiment [13] was “below the threshold”; in experiment [14], “below the threshold”; in experiment [15], 3.57; in [16], “below the threshold”; in [17] it was “below the threshold”; in [18], “below the threshold”. The negative logarithm of the Kd (pKd) in [19] is 3.47; in [20] it was “below the threshold”; in [21], “below the threshold”; in experiment [22] it was “below the threshold”; in experiment [23] it was “below the threshold”; in experiment [24], “below the threshold”. In addition, the pKd result in experiment [25], in experiment [26], in [27] and in experiment [28] was “below the threshold” in each case.

B4: NF2, P35240;P35240-1 (peptide)
chain: KSRVAFFEEL
Regarding B4, the pKd was 4.18 in experiment [1]; “below the threshold” in [3]; “below the threshold” in experiment [5]; “below the threshold” in experiment [6]; 4.22 in [8]; “below the threshold” in experiment [11]. Also, the negative logarithm of the Kd (pKd) entry in experiment [12], in [14], in experiment [17], in experiment [20], in experiment [21] and in experiment [22] was “below the threshold” each time. Besides, the negative logarithm of the Kd (pKd) result in experiment [24] was “below the threshold”; in experiment [25] it was “below the threshold”; in experiment [26], “below the threshold”; in experiment [28], 4.17.

The values are drawn from paper PMC9482650, “Quantitative fragmentomics allow affinity mapping of interactomes” (Nature Communications, 2022).
